Measurements taken from patent US20130071375.

Tests used:
[1] = target: High mobility group box 1 (UniProt P09429)
[2] = target: Thrombomodulin (recombinant) (UniProt P07204)
Chain of Thrombomodulin (recombinant) (P07204 whole entry, looked up): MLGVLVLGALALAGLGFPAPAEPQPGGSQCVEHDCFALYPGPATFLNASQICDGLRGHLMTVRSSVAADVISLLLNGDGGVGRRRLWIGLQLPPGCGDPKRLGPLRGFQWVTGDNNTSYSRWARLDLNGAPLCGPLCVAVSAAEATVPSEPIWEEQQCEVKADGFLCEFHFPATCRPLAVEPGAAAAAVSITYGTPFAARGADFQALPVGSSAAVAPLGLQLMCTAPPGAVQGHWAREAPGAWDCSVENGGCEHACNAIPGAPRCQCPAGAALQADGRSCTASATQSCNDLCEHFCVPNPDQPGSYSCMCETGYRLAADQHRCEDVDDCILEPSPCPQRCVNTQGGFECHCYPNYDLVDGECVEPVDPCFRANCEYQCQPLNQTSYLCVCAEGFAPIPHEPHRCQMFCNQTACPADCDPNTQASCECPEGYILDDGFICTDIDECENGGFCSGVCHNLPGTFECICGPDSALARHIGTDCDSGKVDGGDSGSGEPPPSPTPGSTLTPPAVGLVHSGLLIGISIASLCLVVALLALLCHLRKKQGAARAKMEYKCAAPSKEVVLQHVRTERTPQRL

Chain of High mobility group box 1 (P09429 whole entry): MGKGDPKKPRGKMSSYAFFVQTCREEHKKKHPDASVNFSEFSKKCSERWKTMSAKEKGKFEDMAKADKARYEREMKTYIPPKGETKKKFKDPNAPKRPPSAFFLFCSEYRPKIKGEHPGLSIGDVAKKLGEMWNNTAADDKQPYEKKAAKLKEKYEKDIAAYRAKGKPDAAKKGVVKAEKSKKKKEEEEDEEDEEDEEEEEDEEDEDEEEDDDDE

Row | Substance | proteolytic degradation of HMGB1 by 100 nM APC, with or without soluble EPCR and/or PC/PS/PE vesicles, 2 hours at 37 C [1] | proteolytic cleavage of HMGB1 (400 nmol/L) by 2 nM protease, SDS-PAGE and immunoblot [1] | acceleration of HMGB1 cleavage by 2 nM PCgla/MeizoTh with 400 nmol/L recombinant TM, SDS-PAGE and immunoblot [2]
1 | Activated protein C | APC had no direct proteolytic effect on HMGB1 ... did not lead to the degradation of HMGB1 even after 2 hours incubation at 37 °C (data not shown) |  | 
2 | PCgla/meizothrombin (meizothrombin with its Gla-domain replaced by that of protein C; Factor Xa-activated PCgla/prothrombin-3A) |  | PCgla/MeizoTh can proteolytically cleave HMGB1 | TM can function as a cofactor to markedly accelerate the cleavage reaction
